Results as given in patent US20120238493A1 (INDIANA UNIVERSITY RESEARCH AND TECHNOLOGY, published 2012).
Where two headings read alike, the source gives them in different places. *1 amine or outer side, *2 acyl side, *3 side chain or, on linkers, in order; H or OH if unused. Bridges are numbered along the chain shown (N, C = ends). Where no end group is shown, it is not given here. Side-chain parts run from the residue outwards. [ ]: non-standard residue; d: D form. The star is where a group is joined. γGlu = O=C(O)[C@H](CCC(=O)[*:2])N[*:1]; Palmitoyl = CCCCCCCCCCCCCCCC(=O)*; Aib = CC(C)(N)C(=O)O

T1: GIP receptor (UniProt P48546 22-466, limits assumed)
T1 sequence (looked up): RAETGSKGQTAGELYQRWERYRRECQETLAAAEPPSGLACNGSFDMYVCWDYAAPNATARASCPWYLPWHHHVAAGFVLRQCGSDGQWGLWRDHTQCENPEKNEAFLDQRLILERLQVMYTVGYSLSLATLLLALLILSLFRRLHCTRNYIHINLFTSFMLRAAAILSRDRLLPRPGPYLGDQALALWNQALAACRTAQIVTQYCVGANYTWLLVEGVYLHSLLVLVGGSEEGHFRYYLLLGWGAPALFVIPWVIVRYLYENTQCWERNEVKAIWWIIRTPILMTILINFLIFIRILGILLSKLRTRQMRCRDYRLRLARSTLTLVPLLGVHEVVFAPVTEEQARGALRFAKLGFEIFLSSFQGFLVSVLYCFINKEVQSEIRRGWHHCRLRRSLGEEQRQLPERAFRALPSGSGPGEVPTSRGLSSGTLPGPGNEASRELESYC


Tests used:
Assay in all cases: cell-based or functional assay
glucagon receptor [1] = molecular target: T2, glucagon receptor (UniProt P47871 26-477, limits assumed)
T2 sequence (P47871 26-477 limits assumed): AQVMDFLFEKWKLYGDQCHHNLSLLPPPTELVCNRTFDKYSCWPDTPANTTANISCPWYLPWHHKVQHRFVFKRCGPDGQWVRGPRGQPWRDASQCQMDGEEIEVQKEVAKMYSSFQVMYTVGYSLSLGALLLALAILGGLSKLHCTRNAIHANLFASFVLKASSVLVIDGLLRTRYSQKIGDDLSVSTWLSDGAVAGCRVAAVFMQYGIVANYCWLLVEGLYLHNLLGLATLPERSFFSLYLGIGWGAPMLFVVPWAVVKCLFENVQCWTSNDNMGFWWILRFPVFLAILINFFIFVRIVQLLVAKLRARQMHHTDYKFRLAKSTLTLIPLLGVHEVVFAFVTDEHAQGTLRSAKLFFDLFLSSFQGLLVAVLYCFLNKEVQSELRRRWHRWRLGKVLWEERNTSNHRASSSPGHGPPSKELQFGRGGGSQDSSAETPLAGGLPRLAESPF

GIP receptor [2] = molecular target: T1, GIP receptor
GLP-1 receptor [3] = molecular target: T3, GLP-1 receptor (UniProt P43220 24-463, limits assumed)
glucagon receptor [4] = molecular target: T2, glucagon receptor; remark: listed apart in the source
GIP receptor [5] = molecular target: T1, GIP receptor; remark: listed apart in the source
GLP-1 receptor [6] = molecular target: T3, GLP-1 receptor; remark: listed apart in the source
glucagon receptor [7] = molecular target: T2, glucagon receptor; remark: listed apart in the source
GIP receptor [8] = molecular target: T1, GIP receptor; remark: listed apart in the source
GLP-1 receptor [9] = molecular target: T3, GLP-1 receptor; remark: listed apart in the source
glucagon receptor [10] = molecular target: T2, glucagon receptor; remark: listed apart in the source
GLP-1 receptor [11] = molecular target: T3, GLP-1 receptor; remark: listed apart in the source

Binder | EC50 (cAMP reporter) (glucagon receptor [1]) [pM] | EC50 (cAMP reporter) (GIP receptor [2]) [pM] | EC50 (cAMP reporter) (GLP-1 receptor [3]) [pM] | EC50 (cAMP reporter) (glucagon receptor [7]) [pM] | EC50 (cAMP reporter) (GIP receptor [8]) [pM] | EC50 (cAMP reporter) (GLP-1 receptor [9]) [pM] | relative activity (to native hormone) (glucagon receptor [7]) [%] | relative activity (to native hormone) (GIP receptor [8]) [%] | relative activity (to native hormone) (GLP-1 receptor [9]) [%] | further results
Y[Aib]QGTFTSDK([γGlu-γGlu-Palmitoyl])SIYLDKQAA[Aib]EFVNWLLDGGPSSGAPPPS-NH2 (N-terminus assumed; SMILES CCCCCCCCCCCCCCCC(=O)N[C@@H](CCC(=O)N[C@@H](CCC(=O)NCCCC[C@H](NC(=O)[C@H](CC(=O)O)NC(=O)[C@H](CO)NC(=O)[C@@H](NC(=O)[C@H](Cc1ccccc1)NC(=O)[C@@H](NC(=O)CNC(=O)[C@H](CCC(N)=O)NC(=O)C(C)(C)NC(=O)[C@@H](N)Cc1ccc(O)cc1)[C@@H](C)O)[C@@H](C)O)C(=O)N[C@@H](CO)C(=O)N[C@H](C(=O)N[C@@H](Cc1ccc(O)cc1)C(=O)N[C@@H](CC(C)C)C(=O)N[C@@H](CC(=O)O)C(=O)N[C@@H](CCCCN)C(=O)N[C@@H](CCC(N)=O)C(=O)N[C@@H](C)C(=O)N[C@@H](C)C(=O)NC(C)(C)C(=O)N[C@@H](CCC(=O)O)C(=O)N[C@@H](Cc1ccccc1)C(=O)N[C@H](C(=O)N[C@@H](CC(N)=O)C(=O)N[C@@H](Cc1c[nH]c2ccccc12)C(=O)N[C@@H](CC(C)C)C(=O)N[C@@H](CC(C)C)C(=O)N[C@@H](CC(=O)O)C(=O)NCC(=O)NCC(=O)N1CCC[C@H]1C(=O)N[C@@H](CO)C(=O)N[C@@H](CO)C(=O)NCC(=O)N[C@@H](C)C(=O)N1CCC[C@H]1C(=O)N1CCC[C@H]1C(=O)N1CCC[C@H]1C(=O)N[C@@H](CO)C(N)=O)C(C)C)[C@@H](C)CC)C(=O)O)C(=O)O) [peptide of SEQ ID NO: 91] | 73 | 5 | 8 | – | – | – | – | – | – | –
YSQGTFTSDYSKYLDEQAAKEFIAWLMNGGPSSGAPPPS-NH2 (lactam 16-20; N-terminus assumed; SMILES CC[C@H](C)[C@H](NC(=O)[C@H](Cc1ccccc1)NC(=O)[C@H](CCC(=O)O)NC(=O)[C@@H]1CCCCNC(=O)CC[C@H](NC(=O)[C@H](CC(=O)O)NC(=O)[C@H](CC(C)C)NC(=O)[C@H](Cc2ccc(O)cc2)NC(=O)[C@H](CCCCN)NC(=O)[C@H](CO)NC(=O)[C@H](Cc2ccc(O)cc2)NC(=O)[C@H](CC(=O)O)NC(=O)[C@H](CO)NC(=O)[C@@H](NC(=O)[C@H](Cc2ccccc2)NC(=O)[C@@H](NC(=O)CNC(=O)[C@H](CCC(N)=O)NC(=O)[C@H](CO)NC(=O)[C@@H](N)Cc2ccc(O)cc2)[C@@H](C)O)[C@@H](C)O)C(=O)N[C@@H](CCC(N)=O)C(=O)N[C@@H](C)C(=O)N[C@@H](C)C(=O)N1)C(=O)N[C@@H](C)C(=O)N[C@@H](Cc1c[nH]c2ccccc12)C(=O)N[C@@H](CC(C)C)C(=O)N[C@@H](CCSC)C(=O)N[C@@H](CC(N)=O)C(=O)NCC(=O)NCC(=O)N1CCC[C@H]1C(=O)N[C@@H](CO)C(=O)N[C@@H](CO)C(=O)NCC(=O)N[C@@H](C)C(=O)N1CCC[C@H]1C(=O)N1CCC[C@H]1C(=O)N1CCC[C@H]1C(=O)N[C@@H](CO)C(N)=O) [mt-398 (SEQ ID NO: 18)] | – | – | – | – | – | – | – | – | – | EC50 (cAMP reporter) (glucagon receptor [4]): 3740 pM; relative activity (to native hormone) (glucagon receptor [4]): 0.8%; EC50 (cAMP reporter) (GIP receptor [5]): 3.1 pM; relative activity (to native hormone) (GIP receptor [5]): 434%; EC50 (cAMP reporter) (GLP-1 receptor [6]): 7.8 pM; relative activity (to native hormone) (GLP-1 receptor [6]): 315%
Y[Aib]EGTFTSDYSIYLDKQAA[Aib]EFVNWLLAGGPSSGAPPPSK-NH2 [mt-263 (SEQ ID NO: 10)] | – | – | – | 4040 | 5.4 | – | – | – | – | EC50 (cAMP reporter) (glucagon receptor [4]): 3140 pM; EC50 (cAMP reporter) (GIP receptor [5]): 3.3 pM
Y[Aib]QGTFTSDYSIYLDKKAA[Aib]EFVNWLLAGGPSSGAPPPSK-NH2 [mt-402 (SEQ ID NO: 11)] | – | – | – | – | 18.5 | 7 | – | – | – | –
HSQGTFISDYSKYLDEIHQKEFIAWLMNT-NH2 (lactam 16-20; not fully specified (residue 2); also: AIB at position 2 and position 20 (given S and K), any further modification only) [mt-403 (SEQ ID NO: 12)] | – | – | – | 7.7 | 6.1 | 2.7 | 987 | 273 | 582 | –
Y[Aib]QGTFTSDYSKYLDEIHQKDFVNWLLAQ-NH2 (not fully specified (residue 20)) [mt-405 (SEQ ID NO: 14)] | – | – | – | 9.6 | 3.9 | 2.2 | 797 | 425 | 717 | –
HSQGTFISDYSKALDEIHQKEFIAWLMNT-NH2 (lactam 16-20; not fully specified (residue 2); also: AIB at position 2 and position 20 (given S and K), any further modification only) [mt-404 (SEQ ID NO: 13)] | – | – | – | 108 | 32.7 | 6 | 70.8 | 50.6 | 258 | –
Y[Aib]QGTFTSDK([γGlu-γGlu-Palmitoyl])SIYLDKQAA[Aib]EFVNWLLDT-NH2 (N-terminus assumed; SMILES CCCCCCCCCCCCCCCC(=O)N[C@@H](CCC(=O)N[C@@H](CCC(=O)NCCCC[C@H](NC(=O)[C@H](CC(=O)O)NC(=O)[C@H](CO)NC(=O)[C@@H](NC(=O)[C@H](Cc1ccccc1)NC(=O)[C@@H](NC(=O)CNC(=O)[C@H](CCC(N)=O)NC(=O)C(C)(C)NC(=O)[C@@H](N)Cc1ccc(O)cc1)[C@@H](C)O)[C@@H](C)O)C(=O)N[C@@H](CO)C(=O)N[C@H](C(=O)N[C@@H](Cc1ccc(O)cc1)C(=O)N[C@@H](CC(C)C)C(=O)N[C@@H](CC(=O)O)C(=O)N[C@@H](CCCCN)C(=O)N[C@@H](CCC(N)=O)C(=O)N[C@@H](C)C(=O)N[C@@H](C)C(=O)NC(C)(C)C(=O)N[C@@H](CCC(=O)O)C(=O)N[C@@H](Cc1ccccc1)C(=O)N[C@H](C(=O)N[C@@H](CC(N)=O)C(=O)N[C@@H](Cc1c[nH]c2ccccc12)C(=O)N[C@@H](CC(C)C)C(=O)N[C@@H](CC(C)C)C(=O)N[C@@H](CC(=O)O)C(=O)N[C@H](C(N)=O)[C@@H](C)O)C(C)C)[C@@H](C)CC)C(=O)O)C(=O)O) [peptide of SEQ ID NO: 92] | 10.5 | 21 | 3.1 | – | – | – | – | – | – | –
H[Aib]QGTFTSDYSKYLDERAAQDFVQWLLDGGPSSGAPPPSY(Palmitoyl)G-NH2 (also: Y40 O-2palmitic acid, exact structure not given here) [peptide of SEQ ID NO: 212] | – | – | – | – | – | – | – | – | – | EC50 (cAMP reporter) (glucagon receptor [10]): 7 pM; EC50 (cAMP reporter) (GLP-1 receptor [11]): 4 pM
H[Aib]QGTFTSDK([γGlu-γGlu-Palmitoyl])SKYLDERAAQDFVQWLLDGGPSSGAPPPS-NH2 (N-terminus assumed; SMILES CCCCCCCCCCCCCCCC(=O)N[C@@H](CCC(=O)N[C@@H](CCC(=O)NCCCC[C@H](NC(=O)[C@H](CC(=O)O)NC(=O)[C@H](CO)NC(=O)[C@@H](NC(=O)[C@H](Cc1ccccc1)NC(=O)[C@@H](NC(=O)CNC(=O)[C@H](CCC(N)=O)NC(=O)C(C)(C)NC(=O)[C@@H](N)Cc1c[nH]cn1)[C@@H](C)O)[C@@H](C)O)C(=O)N[C@@H](CO)C(=O)N[C@@H](CCCCN)C(=O)N[C@@H](Cc1ccc(O)cc1)C(=O)N[C@@H](CC(C)C)C(=O)N[C@@H](CC(=O)O)C(=O)N[C@@H](CCC(=O)O)C(=O)N[C@@H](CCCNC(=N)N)C(=O)N[C@@H](C)C(=O)N[C@@H](C)C(=O)N[C@@H](CCC(N)=O)C(=O)N[C@@H](CC(=O)O)C(=O)N[C@@H](Cc1ccccc1)C(=O)N[C@H](C(=O)N[C@@H](CCC(N)=O)C(=O)N[C@@H](Cc1c[nH]c2ccccc12)C(=O)N[C@@H](CC(C)C)C(=O)N[C@@H](CC(C)C)C(=O)N[C@@H](CC(=O)O)C(=O)NCC(=O)NCC(=O)N1CCC[C@H]1C(=O)N[C@@H](CO)C(=O)N[C@@H](CO)C(=O)NCC(=O)N[C@@H](C)C(=O)N1CCC[C@H]1C(=O)N1CCC[C@H]1C(=O)N1CCC[C@H]1C(=O)N[C@@H](CO)C(N)=O)C(C)C)C(=O)O)C(=O)O) [peptide of SEQ ID NO: 90] | 5.6 | 17 | 2.7 | – | – | – | – | – | – | –
